From the supplement of paper PMC9170038 come the findings set out here.

This series deals with MS2 coat protein. Briefly: apparent KD of MS2 coat protein; designed switch direction (-1 OFF switch, 1 ON switch): -1; higher = weaker reporter binding. An outline of the steps: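 The apparent KD reported per design is the median over clusters of curve fits to normalised cluster fluorescence. The RNA switches were transcribed on Illumina chips by stalled E. coli RNA polymerase. SNAP-549-labelled MS2 coat protein was titrated from 0.7 or 1.5 nM, doubling up to 3 µM, in Tris-HCl pH 7.5 buffer containing KCl, MgCl2, BSA, DTT, tRNA and Tween-20, with no input, 200 uM small-molecule ligand, or an oligonucleotide input.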

[1] abbreviates: input ligand: microRNA oligo, concentration not stated.
The mark [2] stands for this setting: Eterna round: R95, input ligand: microRNA oligo, concentration not stated.
Where [3] appears, read: Eterna round: R95, input ligand: FMN 200 uM.
The mark [4] stands for this setting: Eterna round: R95, input ligand: none.

Turning to “CACGAAUUGUGAGGAUAUGUGCGACAAAGUUGCACAGAAGGCACAUGAGGAUCACCCAUGUAAGCUAGGUCGAAAGACCUAGCG [Omei Exc(NG)1 Av1] (Eterna round: R96, puzzle: Exclusion NG 1)”, the “apparent KD of MS2 coat protein” value worked out at 215 nM (input ligand: FMN 200 uM), 22.7 nM under setting [1] and 56.4 nM (input ligand: none).

Turning to “CAGACACAUGAGGAUCACCCAUGUGAGGAUAUGCGUACGUUGUCCGUAGGCGACGUGCGCAGAAGGCGCAUUGG [JL-ex1-3.12 Eli mod] (puzzle: Exclusion 1)”, under setting [2], the “apparent KD of MS2 coat protein” value worked out at 90.3 nM.

On to “CAGCGUUCAGGAUAUACAUGAGGAUCACCCAUGUGUUCCAGCUAGGAAACUAGCAAAUGUAGAAGGGAACGCUG [Mat - Exclusion 3 - JL Mod - D1] (Eterna round: R97, puzzle: Exclusion 3)”, for which the “apparent KD of MS2 coat protein” value is 463 nM (input ligand: FMN 200 uM) and 125 nM (input ligand: none).

Take “CAGCUGAAUGUGAGGAUAUGUCGAGCUGCGGCUCGAUAGAAGGCACAUGAGGAUCACCCAUGUCUCAACAGCUG [BmEx4/2-C3] (Eterna round: R97, puzzle: Brourd's mod of Exclusion 4)”: the “apparent KD of MS2 coat protein” value runs as follows: (input ligand: FMN 200 uM) 215 nM; (input ligand: none) 31.2 nM.

“CAGGAGUCACGAGGAUAUCUGGCUAAACGAACGAGAGAAGGUGUAGACUACCACAUGAGGAUCACCCAUGUUAUGACUAUACUA [Eternabot solution 30] (Eterna round: R96, puzzle: Exclusion NG 1)”: the “apparent KD of MS2 coat protein” value (input ligand: FMN 200 uM) came to 14.8 nM, the “apparent KD of MS2 coat protein” value under setting [1] was 9.94 nM and the “apparent KD of MS2 coat protein” value (input ligand: none) was determined as 17.1 nM.

Turning to “CAGUACAGAGGAUAUACAUGAGGAUCACCCAUGUGUUCCAGCUAGGAAACUAGCGAAUGUAGAAGGCUGUACUG [jl-ex3-4.23 salish99 mod] (Eterna round: R97, puzzle: Exclusion 3)”, the “apparent KD of MS2 coat protein” value amounted to 166 nM (input ligand: FMN 200 uM) and 273 nM (input ligand: none).

Turning to “CAGUACUACAAGCUUCGGGACAUGAGGAUCACCCAUGUUCGUCUUAUUGAUCUAGGUACGCUGACGUACCUAGAUCU [JL-sv1-2.13 Brourd mod] (puzzle: Sensor v3, turn-off variant 1)”, the “apparent KD of MS2 coat protein” value is, setting by setting: under setting [3], 18.6 nM; under setting [2], 32.4 nM; under setting [4], 16.1 nM.

For “CAGUACUGAGGAUAUACAUGAGGAUCACCCAUGUGAACCAGCUAGGAUACUAGCAAAAGUAGAAGGCAGUACUG [Mat - Exclusion 3 - Eli Mod - D17] (Eterna round: R97, puzzle: Exclusion 3)”, the “apparent KD of MS2 coat protein” value by setting is: (input ligand: FMN 200 uM) 67 nM; (input ligand: none) 71.4 nM.

Consider “CAGUACUGAGGAUAUACAUGAGGAUCACCCAUGUGAGCGAUACUAGUGAGGUCGAUUAGUAGAAGGCAGUACUG [Mat X3R4 m33] (Eterna round: R97, puzzle: Exclusion 3)”, for which the “apparent KD of MS2 coat protein” value came out at 353 nM (input ligand: FMN 200 uM) and 32 nM (input ligand: none).

Turning to “CAGUACUGAGGAUAUACAUGAGGAUCACCCAUGUGAUAAGGUUAGGAAACUAACCUAUGUAGAAGGCAGUACUG [Eli x3 4.08] (Eterna round: R97, puzzle: Exclusion 3)”, the “apparent KD of MS2 coat protein” value by setting is: (input ligand: FMN 200 uM) 603 nM; (input ligand: none) 104 nM.

For “CAGUACUGAGGAUAUACAUGAGGAUCACCCAUGUGCUUUAGCUAGGAUACUAGCAUUAGUAGAAGGCAGUACUG [Fiskers Ex 3 828 mod 9] (puzzle: Exclusion 3)”, the “apparent KD of MS2 coat protein” value under setting [2] was determined as 11.3 nM.

As to “CAGUACUGAGGAUAUACAUGAGGAUCACCCAUGUGUUCCAGCUAGGAAACUAGCAAAGGUAGAAGGCAGUACUG [salish99_ex3_r3_065] (Eterna round: R96, puzzle: Exclusion 3)”, under setting [1], the “apparent KD of MS2 coat protein” value turned out to be 23.2 nM.

As to “CAGUACUGAGGAUAUACAUGAGGAUCACCCAUGUGUUCCAGCUAGGAAACUAGCAAAGGUAGAAGGCAGUACUG [salish99_ex3_r3_065] (puzzle: Exclusion 3)”, the “apparent KD of MS2 coat protein” value is 587 nM under setting [3], 23.9 nM under setting [2] and 23.3 nM under setting [4].
